Data published in publication PMC9418005 (Nature Microbiology, 2022).

What was measured:
[1] = target: T1, original 2019-nCoV spike trimer (SARS-CoV-2 original 2019-nCoV …, UniProt P0DTC2, 2 prolines (P986–P987) | residues 682–685 mutated to GSAS); experiment: Luminex spike-ACE2 surrogate neutralization assay; conditions: both partners purified
[2] = target: D614G mutant spike trimer (SARS-CoV-2 2019-nCoV D614G, D614G | 2 prolines (P986–P987) | residues 682–685 mutated to GSAS); experiment: cell-based or functional assay
[3] = target: Delta (B.1.617.2) variant spike trimer (SARS-CoV-2 Delta (B.1.617.2), 2 prolines (P986–P987) | residues 682–685 mutated to GSAS); experiment: cell-based or functional assay
[4] = target: Gamma (P.1) variant spike trimer (SARS-CoV-2 Gamma (P.1), 2 prolines (P986–P987) | residues 682–685 mutated to GSAS); experiment: cell-based or functional assay
[5] = target: Beta (B.1.351) variant spike trimer (SARS-CoV-2 Beta (B.1.351), 2 prolines (P986–P987) | residues 682–685 mutated to GSAS); experiment: cell-based or functional assay
[6] = target: Alpha (B.1.1.7) variant spike trimer (SARS-CoV-2 Alpha (B.1.1.7), 2 prolines (P986–P987) | residues 682–685 mutated to GSAS); experiment: cell-based or functional assay
[7] = target: T1, original 2019-nCoV spike trimer; experiment: Luminex bead-based binding assay; conditions: both partners purified

Row | Binder | binding result [1] | IC80, live SARS-CoV-2 cytopathic effect neutralization assay, Vero E6 cells [2] [µg/mL] | IC80, live SARS-CoV-2 cytopathic effect neutralization assay, Vero E6 cells [3] [µg/mL] | IC80, live SARS-CoV-2 cytopathic effect neutralization assay, Vero E6 cells [4] [µg/mL] | IC80, live SARS-CoV-2 cytopathic effect neutralization assay, Vero E6 cells [5] [µg/mL] | IC80, live SARS-CoV-2 cytopathic effect neutralization assay, Vero E6 cells [6] [µg/mL] | binding result [7]
1 | P5C3 LS monoclonal antibody (antibody, V domains shown) VH: QMQLVQSGPEVKKPGTSVKVSCKASGFTFTSSAVQWVRQARGQRLEWIGWIVVGSGNTDYAQQFQERVTITRDMSTSTAYMELSSLGSEDTAVYYCAAPNCSGGSCYDGFDLWGQGTMVTVSS VL: EIVLTQSPGTLSLSPGERATLSCRGSQSVRSSYLGWYQQKPGQAPRLLIYGASSRATGIPDRFSGSGSGTDFTLTISRLEPEDFAVYYCQQYGSSPWTFGQGTKVEIK | binds |  |  |  |  |  | 
2 | P2G3 LS human IgG1 monoclonal antibody (antibody, V domains shown) VH: EVQLVESGGGLVQPGRSLRLSCAASGFRFDDYALHWVRQAPEKGLEWVSGISWNSNNIGYAESVKGRFTISRDTAKKSLYLQMNDLRAEDTALYYCVKDRHYDSSGYFVNGFDIWGQGTLVTVSA VL: DIQLTQSPSFLSASVGDRVTVTCRASQGISSYVAWYQQKAGKAPTLLIYTASTLQSGVPSRFSGSGSGTEFTLTISSLQPEDFATYYCQQLHSYPVTFGQGTRLDIE |  | 0.028 | 0.024 | 0.021 | 0.017 | 0.01 | binds
